Experiment [1] addresses recombinant human CD38 (Acrobio, ref CD8-H5224) (human), P28907. In words: SPR, Biacore 3000, CM5 chip, recombinant human CD38.
Experiment [2] deals with human CD38 on cells (Daudi cells; CD38^+ Jurkat T cells) (human), P28907. Kind of experiment: cell-based or functional assay.

The values that follow come from patent publication US20230357354A1, “CD38-BINDING CD31 PEPTIDES AND USES THEREOF” (ENCEFA, priority 2020, published 2023).

What is called Kd is the equilibrium constant for the complex coming apart.

As to CMVKLKREKNPGDQNFVILEFC (modifications not checked) [β-sheet-like folded peptide … (SEQ ID NO: 10), free peptide], the Kd in experiment [1] is 8.8 nM. The molecule further came in with an EC50, glucose uptake (2-NBDG fluorescence), human Daudi cells in experiment [2] of 0.002 nM.
